The values below come from article PMC3337327, “Crystal structures from the Plasmodium peroxiredoxins: new insights into oligomerization and product binding” (BMC Structural Biology, 2012).

The target in data set [1] is Plasmodium knowlesi thioredoxin peroxiredoxin 1 (PkTrx-Px1), full-length His6-tagged construct (P. knowlesi H). As to the kind of experiment: LC-MS-TOF mass spectrometry; purified enzyme as isolated, without reducing agent; Agilent LC-MS-TOF, positive ion mode, desalted on a Poroshell 300-SB-C3 column; shows the covalent (disulfide-linked) dimer.
Data set [2] addresses Plasmodium vivax thioredoxin peroxiredoxin 1 (PvTrx-Px1), full-length His6-tagged construct (P. vivax Salvador I). As to the kind of experiment: crystal structure; PvTrx-Px1_red, His6-tag intact, protein treated with 5 mM TCEP; 19% PEG 3350, 150 mM lithium citrate, 18 C; 2.45 A.
For data set [3] the target is unchanged. As to the kind of experiment: LC-MS-TOF mass spectrometry; purified enzyme as isolated, without reducing agent; Agilent LC-MS-TOF, positive ion mode, desalted on a Poroshell 300-SB-C3 column; shows the covalent (disulfide-linked) dimer.
Data set [4] shares this target. In words: crystal structure; PvTrx-Px1_ox, His6-tag intact, 8 mg/mL in 10 mM HEPES pH 7.5, 500 mM NaCl; 5% PEG 4K, NaAc pH 4.6, 18 C; 2.5 A.
Data set [5] deals with Plasmodium yoelii 1-Cys peroxiredoxin of the Prx6 subfamily (PyPrx6), full-length His6-tagged construct (P. yoelii 17XNL). In words: SEC; calibrated Superdex S200 gel filtration column, 10 mM HEPES pH 7.4, 500 mM NaCl; PyPrx6 eluted at 220 mL. A general note: Size exclusion chromatography separates by hydrodynamic size, large species first.
Data set [6] shares this target. In words: crystal structure; PyPrx6-SO2H with glycerol bound, His6-tag intact, 15 mg/mL; 23% PEG 3350, 0.1 M Bis-Tris pH 5.5, 200 mM (NH4)2SO4, 5% ethylene glycol, 20 C; 2.3 A.
Data set [7] addresses Plasmodium yoelii thioredoxin peroxiredoxin 1 (PyTrx-Px1), full-length His6-tagged construct (P. yoelii 17XNL). In words: LC-MS-TOF mass spectrometry; purified enzyme as isolated, without reducing agent; Agilent LC-MS-TOF, positive ion mode, desalted on a Poroshell 300-SB-C3 column; shows the covalent (disulfide-linked) dimer.
Data set [8] concerns the target Plasmodium yoelii thioredoxin peroxiredoxin 1 with a 6-residue N-terminal truncation (PyTrx-Px1: Q7-L195) (P. yoelii 17XNL). As to the kind of experiment: crystal structure; PyTrx-Px1_ox, His6-tag intact, 4.3 mg/mL; 1.6 M ammonium sulfate, 100 mM HEPES pH 6.8, 200 mM NaAc, 20 mM NaBr, 5% ethylene glycol, 18 C; 2.3 A.
The target is the same in data set [9]. As to the kind of experiment: LC-MS-TOF mass spectrometry; purified enzyme as isolated, without reducing agent; Agilent LC-MS-TOF, positive ion mode, desalted on a Poroshell 300-SB-C3 column; shows the covalent (disulfide-linked) dimer.
Data set [10] deals with the molecule itself. The description is as above.

In the case of “Plasmodium knowlesi thioredoxin peroxiredoxin 1 (PkTrx-Px1), full-length His6-tagged construct (enzyme)”, in data set [1], the stoichiometry N (usually a count of units in the complex or per binding partner) was found to be 2.

As to “Plasmodium vivax thioredoxin peroxiredoxin 1 (PvTrx-Px1), full-length His6-tagged construct (enzyme)”, the results for the stoichiometry N in [2], in data set [3] and in data set [4] were 10, 2 and 10, respectively.

For the molecule “Plasmodium yoelii 1-Cys peroxiredoxin of the Prx6 subfamily (PyPrx6), full-length His6-tagged construct (enzyme)”, the stoichiometry N in data set [5] and in data set [6] was 2 in each case.

As for “Plasmodium yoelii thioredoxin peroxiredoxin 1 (PyTrx-Px1), full-length His6-tagged construct (enzyme)”, the stoichiometry N in [7] was 2.

On to “Plasmodium yoelii thioredoxin peroxiredoxin 1 with a 6-residue N-terminal truncation (PyTrx-Px1: Q7-L195) (domain or fragment)”, for which the stoichiometry N was 8 in data set [8] and 2 in [9].

B1: Plasmodium falciparum thioredoxin peroxiredoxin 1 (PfTrx-Px1), full-length His6-tagged construct (enzyme, P. falciparum 3D7, UniProt Q8IL80 1-195, looked up)
chain: MASYVGREAPYFKAEAVFADNTFGEVNLHDFIGKKYVLLYFYPLDFTFVCPSEIIALDKALDAFKERNVELIGCSVDSKYTHLAWKKTPLTKGGIGNIQHTLISDITKSISRSYNVLFGDSVSLRAFVLIDKQGVVQHLLVNNLAIGRSVEEVLRIIDAVQHHEQHGDVCPANWKKGKVAMKPSEEGVSEYLSKL
modifications: intermolecular disulfide between the peroxidatic and resolving cysteines (C50, C170) in the enzyme as purified
notes: thioredoxin peroxiredoxin 1 (Trx-Px1, 2-Cys Prx, Prx1 subfamily), P. falciparum 3D7, PlasmoDB PF14_0368, full length; N-terminal Met of the tag is clipped in E. coli; also called Trx-Px1 from P. falciparum
Take B1: the “stoichiometry N” value in data set [10] worked out at 2.
